Here are results for two molecules from PMC5173032, “A plasma proteolysis pathway comprising blood coagulation proteases” (Oncotarget, 2016).

T1: 20I-50Pdel-FXII (human, UniProt P00748 20-615, 20I-50Pdel)
T1 construct: signal peptide in the construct; source: CHO-K1, transfected (pCMV6-XL5), purified from cell lysate (Ni-NTA agarose); not shown: His6, C-terminal, kept
T1 sequence (looked up): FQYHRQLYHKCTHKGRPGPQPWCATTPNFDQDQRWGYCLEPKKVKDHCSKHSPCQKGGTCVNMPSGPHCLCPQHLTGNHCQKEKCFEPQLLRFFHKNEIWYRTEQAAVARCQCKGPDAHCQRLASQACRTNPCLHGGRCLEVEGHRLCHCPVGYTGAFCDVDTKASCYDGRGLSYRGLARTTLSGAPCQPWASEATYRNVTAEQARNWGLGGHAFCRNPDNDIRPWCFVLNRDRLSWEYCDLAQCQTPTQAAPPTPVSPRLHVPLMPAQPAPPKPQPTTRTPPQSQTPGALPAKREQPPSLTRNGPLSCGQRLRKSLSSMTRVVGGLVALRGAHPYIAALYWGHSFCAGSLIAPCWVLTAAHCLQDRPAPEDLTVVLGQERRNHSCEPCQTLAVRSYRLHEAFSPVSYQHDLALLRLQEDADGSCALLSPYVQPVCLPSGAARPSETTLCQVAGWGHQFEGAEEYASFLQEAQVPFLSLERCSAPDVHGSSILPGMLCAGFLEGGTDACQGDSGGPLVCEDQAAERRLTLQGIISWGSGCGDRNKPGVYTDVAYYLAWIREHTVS

T2: 153T-172Rdel-FXII (human, UniProt P00748 20-615, 153T-172Rdel)
T2 construct: signal peptide in the construct; source: CHO-K1, transfected (pCMV6-XL5), purified from cell lysate (Ni-NTA agarose); not shown: His6, C-terminal, kept
T2 sequence (looked up): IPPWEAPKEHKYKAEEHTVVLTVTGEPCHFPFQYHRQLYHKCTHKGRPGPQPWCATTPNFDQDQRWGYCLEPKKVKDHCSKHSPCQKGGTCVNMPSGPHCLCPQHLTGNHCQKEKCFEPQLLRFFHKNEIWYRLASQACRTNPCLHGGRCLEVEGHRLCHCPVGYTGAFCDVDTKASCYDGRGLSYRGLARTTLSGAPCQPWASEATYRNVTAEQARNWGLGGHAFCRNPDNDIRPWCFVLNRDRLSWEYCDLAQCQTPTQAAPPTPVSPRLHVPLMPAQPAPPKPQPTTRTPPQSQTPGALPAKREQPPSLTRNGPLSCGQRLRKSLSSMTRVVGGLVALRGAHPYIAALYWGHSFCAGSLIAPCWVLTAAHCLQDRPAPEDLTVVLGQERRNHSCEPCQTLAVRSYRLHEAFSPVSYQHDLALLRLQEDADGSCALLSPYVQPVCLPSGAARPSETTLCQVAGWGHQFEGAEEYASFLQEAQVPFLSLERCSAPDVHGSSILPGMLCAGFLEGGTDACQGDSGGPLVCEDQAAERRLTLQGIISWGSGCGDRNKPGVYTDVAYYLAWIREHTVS

B1: recombinant human FXII with 6XHis C-terminal tag (natural protein, UniProt P00748 20-615, looked up)
chain: IPPWEAPKEHKYKAEEHTVVLTVTGEPCHFPFQYHRQLYHKCTHKGRPGPQPWCATTPNFDQDQRWGYCLEPKKVKDHCSKHSPCQKGGTCVNMPSGPHCLCPQHLTGNHCQKEKCFEPQLLRFFHKNEIWYRTEQAAVARCQCKGPDAHCQRLASQACRTNPCLHGGRCLEVEGHRLCHCPVGYTGAFCDVDTKASCYDGRGLSYRGLARTTLSGAPCQPWASEATYRNVTAEQARNWGLGGHAFCRNPDNDIRPWCFVLNRDRLSWEYCDLAQCQTPTQAAPPTPVSPRLHVPLMPAQPAPPKPQPTTRTPPQSQTPGALPAKREQPPSLTRNGPLSCGQRLRKSLSSMTRVVGGLVALRGAHPYIAALYWGHSFCAGSLIAPCWVLTAAHCLQDRPAPEDLTVVLGQERRNHSCEPCQTLAVRSYRLHEAFSPVSYQHDLALLRLQEDADGSCALLSPYVQPVCLPSGAARPSETTLCQVAGWGHQFEGAEEYASFLQEAQVPFLSLERCSAPDVHGSSILPGMLCAGFLEGGTDACQGDSGGPLVCEDQAAERRLTLQGIISWGSGCGDRNKPGVYTDVAYYLAWIREHTVS
notes: signal peptide in the construct; also called factor XII; source: CHO-K1, transfected (pCMV6-XL5), purified from cell lysate (Ni-NTA agarose); not shown: His6, C-terminal, kept
B2: recombinant human prolidase (peptidase D, PEPD) (enzyme, UniProt P12955 1-493, looked up)
chain: MAAATGPSFWLGNETLKVPLALFALNRQRLCERLRKNPAVQAGSIVVLQGGEETQRYCTDTGVLFRQESFFHWAFGVTEPGCYGVIDVDTGKSTLFVPRLPASHATWMGKIHSKEHFKEKYAVDDVQYVDEIASVLTSQKPSVLLTLRGVNTDSGSVCREASFDGISKFEVNNTILHPEIVECRVFKTDMELEVLRYTNKISSEAHREVMKAVKVGMKEYELESLFEHYCYSRGGMRHSSYTCICGSGENSAVLHYGHAGAPNDRTIQNGDMCLFDMGGEYYCFASDITCSFPANGKFTADQKAVYEAVLRSSRAVMGAMKPGVWWPDMHRLADRIHLEELAHMGILSGSVDAMVQAHLGAVFMPHGLGHFLGIDVHDVGGYPEGVERIDEPGLRSLRTARHLQPGMVLTVEPGIYFIDHLLDEALADPARASFLNREVLQRFRGFGGVRIEEDVVVTDSGIELLTCVPRTVEEIEACMAGCDKAFTPFSGPK
notes: human prolidase (peptidase D); also called hPEPD; source: recombinant, generated, purified and characterized as recently reported [7, 11]; not shown: His6, C-terminal, kept

Conditions in all cases: both partners purified
Assay [1] has as its target T3, human amyloid β1-42 (human, UniProt P05067 672-713).
T3 construct: amyloid β1-42, the peptide cut by secretases from the human Aβ precursor protein; numbers count on: the peptide; also called hAβ1-42; Aβ1-42; source: bought: Sigma-Aldrich (A9810)
The experiment in a line: co-sedimentation; hAβ1-42 (200 nM) incubated with FXII or a mutant (20 nM) in PBS, 100 μl, 2 h at RT; Aβ1-42 aggregated; low-speed centrifugation; precipitates re-dissolved in 2% SDS and analysed with the supernatants by IB.

The target of assay [2] is B1. As to the kind of experiment: co-IP; purified proteins: hPEPD, an hPEPD mutant or mSRC at 40 nM incubated with a coagulation factor, FXII or an FXII mutant at 0.5 μM in PBS, 100 μl, 2 h at 37°C; then a specific primary antibody at 4°C overnight, IP by protein G-agarose, IB.
For assay [3], the target named is T1, 20I-50Pdel-FXII. The description is as above.
Assay [4] has as its target T2, 153T-172Rdel-FXII. The assay is described as above.

Regarding B1, the binding result in assay [1] is “binds”.
Take B2: the binding result in assay [2], in assay [3] and in assay [4] was “binds” each time.
